Patent publication US20120277143A1 (Janssen / Centocor, published 2012)

T1: human IL4 (human, UniProt P05112 25-153, biotinylated in the SPR and competition assays (sites not given))
T1 construct: Peprotech #200-04, mature protein produced in E. coli; also called hIL4; Interleukin 4
T1 sequence: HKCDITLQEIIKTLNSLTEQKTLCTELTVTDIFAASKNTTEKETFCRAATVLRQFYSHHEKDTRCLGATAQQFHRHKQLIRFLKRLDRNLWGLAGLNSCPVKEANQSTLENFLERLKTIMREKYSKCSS


Tests used:
human IL4 [1] = biological target: T1, human IL4; experiment: IL4RA binding inhibition; assay not re-described (Luminex of Example 2)
human IL4 [2] = biological target: T1, human IL4; experiment: IL4R binding inhibition; repeats Table 17
Procedure: AR protein inhibition of IL4 binding to IL4 RA was assessed using IL4 RA-Fc (R&D Systems), comprising the Gly24-His232 which represents the ECD (SEQ ID NO: 5) fused to a human IgGl-Fc and therefor a disulfide linked homodimer. The protein was conjugated to carboxylated Luminex microspheres according to the manufacturer's protocol. For neutralization experiments, 5000 IL4RA-Fc conjugated beads in 50 μl were added to each well of a 96-well filter plate (Millipore). Biotinylated human IL4 was mixed with an appropriate dilution of AR protein in Luminex Assay Buffer (PBS, 1% BSA, pH 7.4) to give a final concentration of 67 pM IL4. The plate was incubated for 1 hour at RT in the dark on a plate shaker, set to shake vigorously to avoid bead aggregation. The plate was washed twice with 150 μl of wash buffer (PBS, 0.1% BSA, pH 7.4, 0.05% Tween-20) using a vacuum manifold followed by the addition of 50 μl of Streptavidin PE at 25 μg/ml and incubated at RT for 20 minutes. The plates were washed again and 150 μl of sheath fluid was added and the plate was placed on the shaker for 5 minute. Plates were read using a Luminex® 100 system; data were plotted as a function of AR protein concentration. IC₅₀ values were determined by fitting the data to the equation for sigmoidal dose response using PRISM software (GraphPAD PRISM) (Table 6).

human IL13 [3] = biological target: T2, human IL13 (human, UniProt P35225 35-146, biotinylated in the SPR assays (sites not given)); experiment: cell-based or functional assay
T2 sequence (P35225 other isoform, or with tags, fused parts or gaps limits assumed): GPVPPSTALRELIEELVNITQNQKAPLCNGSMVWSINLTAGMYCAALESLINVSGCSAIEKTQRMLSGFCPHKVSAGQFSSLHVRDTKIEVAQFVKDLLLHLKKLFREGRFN

human IL13 R130Q [4] = biological target: T3, human IL13 R130Q (human, UniProt P35225 35-146, biotinylated (sites not given)); experiment: IL13Ra2 binding inhibition; repeats Table 17
T3 construct: Peprotech; also called IL13R13Q; R111Q
T3 sequence (P35225 35-146 limits assumed, stated change not applied): as the sequence (P35225 other isoform, or with tags, fused parts or gaps limits assumed) above, with R110Q counted along it
Procedure: (§1) Binding protein inhibition of IL13 binding to Rα2 was assessed using IL13Rα2-Fc (R&D Systems) conjugated to carboxylated Luminex microspheres according to the manufacturer's protocol. For biotinylation of IL13, recombinant human IL13 R130Q (Peprotech) was biotinylated at a 4:1 ratio using EZ-Link NHS-LC-Biotin (Pierce, #21336) for 2 hours at RT. The protein was dialyzed in PBS overnight to remove excess biotinylation reagent. For neutralization experiments, 5000 IL13 Rα2-Fc conjugated beads in 50 μl were added to each well of a 96-well filter plate (Millipore). 50 μl of biotinylated human IL13 at 1 ng/ml (80 pM) was mixed with an appropriate dilution of binding protein in Luminex Assay Buffer (PBS, 1% BSA, pH 7.4). The plate was incubated for 1 hour at RT in the dark on a plate shaker, set to shake vigorously to avoid bead aggregation. The plate was washed 3 times with 150 μl of wash buffer (PBS, 1% BSA, pH 7.4, 0.05% Tween-20) using a vacuum manifold followed by the addition of 50 μl of Streptavidin PE at 25 μg/ml and incubated at RT for 20 minutes. The plates were washed again and 100 μl of sheath fluid was added and the plate was placed on the shaker for 1 minute. Plates were read using a Luminex® 100 system; data were plotted as a function of binding protein concentration. IC₅₀ values were determined by fitting the data to the equation for sigmoidal dose response using PRIZM software (GraphPAD PRIZM).

human IL13 [5] = biological target: T2, human IL13; experiment: Affinity to IL13; method not re-described
human IL4 [6] = biological target: T1, human IL4; experiment: Affinity to IL4; method not re-described
human IL4 [7] = biological target: T1, human IL4; experiment: cell-based or functional assay
human IL13 R130Q [8] = biological target: T3, human IL13 R130Q; experiment: IL13Ra2 binding inhibition; assay not re-described (Luminex of Example 2)
Procedure: as §1

human IL13 R130Q [9] = biological target: T3, human IL13 R130Q; experiment: Luminex competition, 80 pM biotin-IL13 R130Q binding to IL13Ra2-Fc beads
Procedure: as §1

human IL13 [10] = biological target: T2, human IL13; experiment: cell-based or functional assay; remark: listed apart in the source
cyno IL13 = cyno IL13 (cynomolgus monkey, UniProt Q0PW92 21-132); experiment: cell-based or functional assay
cyno IL13, sequence (Q0PW92 entry or part of it): as the sequence (P35225 other isoform, or with tags, fused parts or gaps limits assumed) above, with G1S, R10K, M42V, S67N, H83R, L100V, R110Q counted along it

human IL13 [11] = biological target: T2, human IL13; experiment: SPR BIAcore, biotin-IL13 on SA chip, global fit
Procedure: Recombinant human IL13 (Peprotech) was minimally biotinylated on ice using sulfo-NHS-LCLC-Biotin and desalted into the experimental running buffer containing 10 mM HEPES, 150 mM NaCl, pH 7.4, 0.01% Tween-20, and 0.1 mg/mL BSA. Biotinylated IL13 was captured at three different surface densities (from about 150, 50, and 25 RU) onto three different BIAcore SA (streptavidin) sensor chips. Each binding protein sample was tested at 40 nM as the highest concentration in a 3-fold dilution series over the three different density IL13 surfaces. The dissociation phase for the highest concentration of the binding protein sample was monitored for one hour. The response data from each of the different density surfaces was globally fitted in order to extract estimates of the kinetic and affinity constants which are provided in Table 7 below.

human IL13 [12] = biological target: T2, human IL13; experiment: SPR ProteOn, biotin-hIL13 on streptavidin, 1:1 global fit
Procedure: Complete kinetic data describing binding of various engineered binding protein molecules to human IL13 was measured using a method similar to that described above for the single point affinity analysis. Briefly, streptavidin (Pierce) was immobilized to similar levels (˜1800 RUs) on all six channels of a ProteOn GLC chip via amine coupling (pH 5.0). Biotinylated hIL13 was captured at different surface densities (600˜100 RUs) on different channels. Protein binding was tested starting at 40 nM diluted in a 3-fold concentration series over the different density IL13 surfaces; a buffer sample was injected to monitor the baseline stability. Dissociation phases for all concentrations of each binding protein sample were monitored for one hour at a flow rate of 100 μl/min. Response data for all concentration series from the different density surfaces were globally fit to a 1:1 simple langmuir binding model to extract values of the kinetic (kₒₙ, koff) and affinity (KD) constants provided in Table 16.

Binder | IC50 (human IL4 [1]) | IC50 (human IL4 [2]) | A549/TARC IL13 IC50 (human IL13 [3]) | HEK Stat6 human IL13 IC50 (human IL13 [3]) | IC50 (human IL13 R130Q [4]) | Kd (human IL13 [5]) | Kd (human IL4 [6]) | A549/TARC IL4 IC50 (human IL4 [7]) | HEK stat6 hIL4 IC50 (human IL4 [7]) | Ramos Assay IC50 (human IL4 [7]) | IC50 (human IL13 R130Q [8]) | IC50 (human IL13 R130Q [9]) | STAT6 Phospho IC50 (human IL13 [10]) | TARC expression IC50 (human IL13 [10]) | Cyno IL13 STAT6 IC50 (cyno IL13) | Kd (human IL13 [11]) | koff (human IL13 [11]) | Kd (human IL13 [12]) | kon (human IL13 [11])
C01_6G9_V1_C06_44C12_V2 (designed binder, bispecific IL13/IL4 ankyrin repeat protein with (GGGGS)4 linker; also called bispecific AR protein) DLDKKLLEAARAGQDDEVRILMANGADVNARDSYGSTPLHLAAREGHLEIVEVLLKYGADVNAADFIGDTPLHLAAYRGHLEIVEVLLKYGADVNASDITGETPLHLAAQIGHLEIVEVLLKHGADVNAQDKFGKTAFDISIDNGNEDLAEILQKLNGGGGSGGGGSGGGGSGGGGSDLGKKLLEAASAGQDDEVHILMANGADVNALDDSGYTPLHLAAEDGHLEIVEVLLKHGADVNAADRLGDTPLHLAAFVGHLEIVEVLLKAGADVNAVDLAGVTPLHVAAFYGHLEIVEVLLKAGADVNAQDKFGKTAFDISIDNGNEDLAEILQKLN | 0.025 nM | 0.025 nM | 0.128 nM | 0.015 nM | 0.023 nM | 0.0091 nM | 0.002 nM | 0.055 nM | 0.0072 nM | 0.0086 nM | 0.023 nM |  |  |  |  |  |  |  | 
C06_28E5_V1_C01_6G9_V1 (designed binder, bispecific IL4/IL13 ankyrin repeat protein with (GGGGS)4 linker; also called bispecific AR protein) DLGKKLLEAARAGQDDEVRILMANGADVNAADDSGITPLHLAAEDGHLEIVEVLLKAGADVNAQDNLGDTPLHLAAWTGHLEIVEVLLKAGADVNAYDISGITPLHLAAFYGHLEIVEVLLKHGADVNAQDKFGKTAFDISIDNGNEDLAEILQKLNGGGGSGGGGSGGGGSGGGGSDLDKKLLEAARAGQDDEVRILMANGADVNARDSYGSTPLHLAAREGHLEIVEVLLKYGADVNAADFIGDTPLHLAAYRGHLEIVEVLLKYGADVNASDITGETPLHLAAQIGHLEIVEVLLKHGADVNAQDKFGKTAFDISIDNGNEDLAEILQKLN | 0.025 nM | 0.025 nM | 0.084 nM | 0.019 nM | 0.036 nM | 0.0106 nM | 0.0217 nM | 0.039 nM | 0.0011 nM | 0.0054 nM | 0.036 nM |  |  |  |  |  |  |  | 
C01_6G9_V1_C06_53G6_V1 (designed binder, bispecific IL13/IL4 ankyrin repeat protein with (GGGGS)4 linker; also called bispecific AR protein) DLDKKLLEAARAGQDDEVRILMANGADVNARDSYGSTPLHLAAREGHLEIVEVLLKYGADVNAADFIGDTPLHLAAYRGHLEIVEVLLKYGADVNASDITGETPLHLAAQIGHLEIVEVLLKHGADVNAQDKFGKTAFDISIDNGNEDLAEILQKLNGGGGSGGGGSGGGGSGGGGSDLGKKLLEAARAGQDDEVRILMANGADVNATDDWGDTLLHLAATDGHLEIVEVLLKAGADVNANDAIGDTPLHLAALYGHLEIVEVLLKYGADVNATDLHGFTPLHLAAFWGHLEIVEVLLKHGADVNAQDKFGKTAFDISIDNGNEDLAEILQKLN | 0.015 nM | 0.015 nM | 0.075 nM | 0.015 nM | 0.099 nM | 0.0093 nM | 0.0031 nM | 0.024 nM | 0.0005 nM | 0.0048 nM | 0.099 nM |  |  |  |  |  |  |  | 

Next, values leading:

IC50 (human IL4 [1]) | IC50 (human IL4 [2]) | A549/TARC IL13 IC50 (human IL13 [3]) | HEK Stat6 human IL13 IC50 (human IL13 [3]) | IC50 (human IL13 R130Q [4]) | Kd (human IL13 [5]) | Kd (human IL4 [6]) | A549/TARC IL4 IC50 (human IL4 [7]) | HEK stat6 hIL4 IC50 (human IL4 [7]) | Ramos Assay IC50 (human IL4 [7]) | IC50 (human IL13 R130Q [8]) | IC50 (human IL13 R130Q [9]) | STAT6 Phospho IC50 (human IL13 [10]) | TARC expression IC50 (human IL13 [10]) | Cyno IL13 STAT6 IC50 (cyno IL13) | Kd (human IL13 [11]) | koff (human IL13 [11]) | Kd (human IL13 [12]) | kon (human IL13 [11]) | Binder
0.017 nM | 0.017 nM | 0.063 nM | 0.014 nM | 0.028 nM | 0.0116 nM | 0.0017 nM | 0.016 nM | 0.0007 nM | 0.0058 nM | 0.028 nM |  |  |  |  |  |  |  |  | C06_44C12_V2_C01_6G9_V1 (designed binder, bispecific IL4/IL13 ankyrin repeat protein with (GGGGS)4 linker; also called bispecific AR protein) DLGKKLLEAASAGQDDEVHILMANGADVNALDDSGYTPLHLAAEDGHLEIVEVLLKHGADVNAADRLGDTPLHLAAFVGHLEIVEVLLKAGADVNAVDLAGVTPLHVAAFYGHLEIVEVLLKAGADVNAQDKFGKTAFDISIDNGNEDLAEILQKLNGGGGSGGGGSGGGGSGGGGSDLDKKLLEAARAGQDDEVRILMANGADVNARDSYGSTPLHLAAREGHLEIVEVLLKYGADVNAADFIGDTPLHLAAYRGHLEIVEVLLKYGADVNASDITGETPLHLAAQIGHLEIVEVLLKHGADVNAQDKFGKTAFDISIDNGNEDLAEILQKLN
 |  |  |  |  |  |  |  |  |  |  | 0.058 nM | 0.0105 nM | 0.354 nM | 0.162 nM | 0.204 nM | 6.25e-05 s⁻¹ |  |  | 7D7 (designed binder, N-Cap-(AR)3-C-Cap) DLGKKLLEAARAGQDDEVRILMANGADVNATDTYGSTPLHLAARHCHQEIVEVLLKHGADVNANDFIGDTPLHLAAWHGHLEIVEVLLKNGADVNAMDVTGETPLHLAAYHGHLDIVEVLLKNGADVNAQDKFGKTAFDISIDNGNEDLAEILQKLN
 |  |  |  |  |  |  |  |  |  |  |  | 0.055 nM |  |  | 0.11 nM | 9.9e-05 s⁻¹ | 0.00164 nM | 930000 M⁻¹ s⁻¹ | 9F8 (designed binder, ankyrin repeat protein) DLGKKLLEAARAGQDDEVRILMANGADVNASDIFGSTPLHLAARHGHLEIVEVLLKYGADVNAMDFIGDTPLHLAAYRGHLEIVEVLLKYGVDVNADDHGDTPLHLAASMGHLEIVEVLLKNGADVNAQDKFGKTAFDISIDNGNEDLAEILQKLN
